Measurements as given in patent publication US20150344580A1 (MSM PROTEIN TECHNOLOGIES, published 2015).

Columns and labels:
human CCR4 = target: T1, human CCR4 (human, UniProt P51679 1-360); assay: FACS, CHO-human CCR4 cells
T1 construct: whole, on cells; CHO cells
T1 sequence (looked up): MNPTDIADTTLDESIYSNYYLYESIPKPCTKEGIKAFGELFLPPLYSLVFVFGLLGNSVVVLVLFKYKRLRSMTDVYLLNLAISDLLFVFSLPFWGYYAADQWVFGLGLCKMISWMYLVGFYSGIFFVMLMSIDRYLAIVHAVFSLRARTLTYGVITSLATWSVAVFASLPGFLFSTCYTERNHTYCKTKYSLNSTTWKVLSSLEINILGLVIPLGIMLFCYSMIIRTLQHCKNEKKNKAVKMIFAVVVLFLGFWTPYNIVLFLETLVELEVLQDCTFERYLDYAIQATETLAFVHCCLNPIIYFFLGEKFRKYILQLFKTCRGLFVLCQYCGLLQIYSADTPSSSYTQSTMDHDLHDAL
Experimental: (§1) Washing step—after the incubation 150 μl of FACS buffer was added to the cell sample, the samples were mixed gently by up-down pipetting the cell suspension. Then the samples were centrifuged at 1100 rpm for 5 minutes, and supernatants were removed. Washing step was repeated ones. Then 10 μl of anti-human PE-(Fab)2 form Jackson Immuno Research Lab. #709-116-098 diluted 40 times in FACS buffer were added to the cells and the cells were re-suspended by up-down pipetting. After 20 min. incubation on ice in dark the washing step was repeated twice. The washed cells were mixed with 100 μl of FIX buffer (0.5% Paraformaldehyde solution in PBS). Fixed samples were stored in dark on ice and analyzed by FACS on Guava PCA-96 flow cytometer.
In more details, the cell staining procedure was: […] cell suspension in 10 μl FACS buffer (1×PBS, 2.0% FBS, 0.2% sodium azide) was mixed with 10 μl of 200 nM the corresponding anti-CCR7 MAB and incubated on ice for 30 min. Washing step—after the incubation 150 μl of FACS buffer was added to the cell sample, the samples were mixed gently by up-down pipetting the cell suspension. […] Fixed samples were stored in dark on ice and analyzed by FACS on Guava PCA-96 flow cytometer. The fluorescent signals collected from individual cells were obtained using fluorescence Activated Cell Sorter (FACS).

human CCR6 = target: T2, human CCR6 (human, UniProt P51684 1-374); assay: FACS, CHO-human CCR6 cells
T2 construct: whole, on cells; CHO cells; also called CCR6 (human)
T2 sequence (looked up): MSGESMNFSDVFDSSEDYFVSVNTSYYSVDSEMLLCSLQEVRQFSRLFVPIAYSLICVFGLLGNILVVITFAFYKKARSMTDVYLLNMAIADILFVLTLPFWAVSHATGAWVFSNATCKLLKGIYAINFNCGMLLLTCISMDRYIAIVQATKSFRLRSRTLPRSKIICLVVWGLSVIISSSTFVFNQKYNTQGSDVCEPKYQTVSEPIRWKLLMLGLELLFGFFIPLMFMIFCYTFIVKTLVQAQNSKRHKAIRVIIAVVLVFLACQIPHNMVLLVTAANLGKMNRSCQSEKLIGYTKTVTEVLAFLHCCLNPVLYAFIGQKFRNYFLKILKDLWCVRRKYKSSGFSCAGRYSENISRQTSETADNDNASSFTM
Experimental: as §1, with “In more details, the cell staining procedure was: […] cell suspension in 10 μl FACS buffer (1×PBS, 2.0% FBS, 0.2% sodium azide) was mixed with 10 μl of 200 nM the corresponding anti-CCR7 MAB and incubated on ice for 30 min. Washing step—after” for “Washing step—after”, “flow cytometer. The fluorescent signals collected from individual cells were obtained using fluorescence Activated Cell Sorter (FACS).” for “flow cytometer.”

mouse CCR6 = target: T3, mouse CCR6 (mouse, UniProt O54689 1-367); assay: FACS, CHO-mouse CCR6 cells
T3 construct: whole, on cells; CHO cells; also called CCR6 (mouse)
T3 sequence (looked up): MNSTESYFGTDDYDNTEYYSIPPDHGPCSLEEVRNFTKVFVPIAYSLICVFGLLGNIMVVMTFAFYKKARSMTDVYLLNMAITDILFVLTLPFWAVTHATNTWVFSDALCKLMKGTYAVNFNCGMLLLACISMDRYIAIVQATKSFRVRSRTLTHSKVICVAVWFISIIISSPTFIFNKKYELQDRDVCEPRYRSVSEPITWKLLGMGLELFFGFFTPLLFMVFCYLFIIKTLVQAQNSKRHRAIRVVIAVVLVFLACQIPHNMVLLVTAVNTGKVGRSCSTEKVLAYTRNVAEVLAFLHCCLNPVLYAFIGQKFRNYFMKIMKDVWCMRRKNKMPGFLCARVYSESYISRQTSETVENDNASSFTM
Experimental: as §1, with “In more details, the cell staining procedure was: […] cell suspension in 10 μl FACS buffer (1×PBS, 2.0% FBS, 0.2% sodium azide) was mixed with 10 μl of 200 nM the corresponding anti-CCR7 MAB and incubated on ice for 30 min. Washing step—after” for “Washing step—after”, “flow cytometer. The fluorescent signals collected from individual cells were obtained using fluorescence Activated Cell Sorter (FACS).” for “flow cytometer.”

human CXCR5 = target: T4, human CXCR5 (human, UniProt P32302 1-372); assay: FACS, CHO-human CXCR5 cells
T4 construct: whole, on cells; CHO cells
T4 sequence (looked up): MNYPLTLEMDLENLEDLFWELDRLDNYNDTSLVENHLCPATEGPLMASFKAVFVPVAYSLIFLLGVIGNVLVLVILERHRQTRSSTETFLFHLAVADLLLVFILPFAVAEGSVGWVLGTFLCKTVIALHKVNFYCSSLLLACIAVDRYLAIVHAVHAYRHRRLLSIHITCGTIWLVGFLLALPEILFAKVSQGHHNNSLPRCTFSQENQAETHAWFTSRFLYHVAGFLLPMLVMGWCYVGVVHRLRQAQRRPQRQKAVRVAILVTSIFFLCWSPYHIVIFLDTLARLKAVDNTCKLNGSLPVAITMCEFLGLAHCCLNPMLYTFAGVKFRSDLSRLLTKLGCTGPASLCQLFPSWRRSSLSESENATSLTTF

human CXCR6 = target: T5, human CXCR6 (human, UniProt O00574 1-342); assay: FACS, CHO-human CXCR6 cells
T5 construct: whole, on cells; CHO cells

human CXCR4 = target: T6, human CXCR4 (human, UniProt P61073 1-352); assay: FACS, Cf2th-human CXCR4 cells
T6 construct: whole, on cells; Cf2th cells
Experimental: as §1, with “In more details, the cell staining procedure was: […] cell suspension in 10 μl FACS buffer (1×PBS, 2.0% FBS, 0.2% sodium azide) was mixed with 10 μl of 200 nM the corresponding anti-CCR7 MAB and incubated on ice for 30 min. Washing step—after” for “Washing step—after”, “flow cytometer. The fluorescent signals collected from individual cells were obtained using fluorescence Activated Cell Sorter (FACS).” for “flow cytometer.”

human CXCR3 = target: T7, human CXCR3 (human, UniProt P49682 1-368); assay: FACS, R1610-human CXCR3 cells
T7 construct: whole, on cells; R1610 cells
T7 sequence (looked up): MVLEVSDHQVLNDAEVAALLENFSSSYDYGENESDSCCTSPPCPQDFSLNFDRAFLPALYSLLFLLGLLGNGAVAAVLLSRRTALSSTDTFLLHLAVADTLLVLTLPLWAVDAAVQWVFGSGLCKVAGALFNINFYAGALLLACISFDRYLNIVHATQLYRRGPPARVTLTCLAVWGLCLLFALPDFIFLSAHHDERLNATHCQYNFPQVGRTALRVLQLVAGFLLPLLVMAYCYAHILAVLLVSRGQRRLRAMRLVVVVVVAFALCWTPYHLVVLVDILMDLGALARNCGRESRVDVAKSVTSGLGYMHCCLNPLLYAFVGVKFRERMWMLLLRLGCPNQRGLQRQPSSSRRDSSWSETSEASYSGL
Experimental: as §1, with “In more details, the cell staining procedure was: […] cell suspension in 10 μl FACS buffer (1×PBS, 2.0% FBS, 0.2% sodium azide) was mixed with 10 μl of 200 nM the corresponding anti-CCR7 MAB and incubated on ice for 30 min. Washing step—after” for “Washing step—after”, “flow cytometer. The fluorescent signals collected from individual cells were obtained using fluorescence Activated Cell Sorter (FACS).” for “flow cytometer.”

T6 sequence (P61073 whole entry): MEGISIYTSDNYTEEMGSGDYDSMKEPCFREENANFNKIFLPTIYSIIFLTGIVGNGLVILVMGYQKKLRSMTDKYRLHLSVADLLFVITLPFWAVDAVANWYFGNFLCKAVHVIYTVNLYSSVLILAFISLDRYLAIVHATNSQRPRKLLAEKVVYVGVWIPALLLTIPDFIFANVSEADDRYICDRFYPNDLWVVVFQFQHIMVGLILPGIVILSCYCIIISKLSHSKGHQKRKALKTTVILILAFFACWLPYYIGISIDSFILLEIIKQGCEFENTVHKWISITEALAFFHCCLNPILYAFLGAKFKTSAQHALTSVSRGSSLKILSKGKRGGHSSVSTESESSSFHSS
T5 sequence (O00574 whole entry): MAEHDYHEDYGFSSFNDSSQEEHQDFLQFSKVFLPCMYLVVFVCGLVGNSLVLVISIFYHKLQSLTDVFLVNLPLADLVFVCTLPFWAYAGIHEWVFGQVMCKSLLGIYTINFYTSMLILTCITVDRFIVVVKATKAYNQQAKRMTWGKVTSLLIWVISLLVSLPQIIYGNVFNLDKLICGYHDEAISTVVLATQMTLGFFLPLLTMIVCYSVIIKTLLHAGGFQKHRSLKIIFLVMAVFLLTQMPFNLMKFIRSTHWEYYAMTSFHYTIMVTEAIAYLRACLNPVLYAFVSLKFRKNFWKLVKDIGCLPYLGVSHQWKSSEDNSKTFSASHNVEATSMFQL

B1: MSM-R710 (fully human anti-human CCR7 antibody, IgG1) (antibody, V domains shown)
VH: EVQLLESGGGLVQPGGSLRLSCAASGFTFSNYTMHWVRQAPGKGLEWVSGIGPRSGRTYYADSVKGRFTISRDNSKNTLYLQMNSLRAEDTAVYYCARSYAYQYRGFDYWGQGTLVTVSS
VL: EIVLTQSPGTLSLSPGERATLSCRASQSVSSSYLAWYQQKPGQAPRLLIYGASSRATGIPDRFSGSGSGTDFTLTISRLEPEDFAVYYCQSSVTFGQGTKVEIKR
notes: IgG1 format
- binding result (human CCR4): no binding (tested: 200 nM MAB mixed 1:1 with cells)
- binding result (human CCR6): no binding (tested: 200 nM MAB mixed 1:1 with cells)
- binding result (mouse CCR6): no binding (tested: 200 nM MAB mixed 1:1 with cells)
- binding result (human CXCR5): no binding (tested: 200 nM MAB mixed 1:1 with cells)
- binding result (human CXCR6): no binding (tested: 200 nM MAB mixed 1:1 with cells)
- binding result (human CXCR4): no binding (tested: 200 nM MAB mixed 1:1 with cells)
- binding result (human CXCR3): no binding (tested: 200 nM MAB mixed 1:1 with cells)

B2: MSM-R735 (fully human anti-human CCR7 antibody, IgG1) (antibody)
heavy: not shown
light: EIVLTQSPGTLSLSPGERATLSCRASQSVSSSYLAWYQQKPGQAPRLLIYGASSRATGIPDRFSGSGSGTDFTLTISRLEPEDFAVYYCQQGSPVTFGQGTKVEIKRTVAAPSVFIFPPSDEQLKSGTASVVCLLNNFYPREAKVQWKVDNALQSGNSQESVTEQDSKDSTYSLSSTLTLSKADYEKHKVYACEVTHQGLSSPVTKSFNRGEC
notes: IgG1 format; also called R735 Human IgG1
- binding result (human CCR4): no binding (tested: 200 nM MAB mixed 1:1 with cells)
- binding result (human CCR6): no binding (tested: 200 nM MAB mixed 1:1 with cells)
- binding result (mouse CCR6): no binding (tested: 200 nM MAB mixed 1:1 with cells)
- binding result (human CXCR5): no binding (tested: 200 nM MAB mixed 1:1 with cells)
- binding result (human CXCR6): no binding (tested: 200 nM MAB mixed 1:1 with cells)
- binding result (human CXCR4): no binding (tested: 200 nM MAB mixed 1:1 with cells)
- binding result (human CXCR3): no binding (tested: 200 nM MAB mixed 1:1 with cells)
